These results are taken from patent US20210252069A1 (published 2021).

For this test, the target named is T1, IL13Rα2 (human, UniProt Q14627 27-380).
T1 construct: whole, on cells; Endogenous target on U87 cells; also called IL-13Ra2; IL13Ra2
T1 sequence (looked up): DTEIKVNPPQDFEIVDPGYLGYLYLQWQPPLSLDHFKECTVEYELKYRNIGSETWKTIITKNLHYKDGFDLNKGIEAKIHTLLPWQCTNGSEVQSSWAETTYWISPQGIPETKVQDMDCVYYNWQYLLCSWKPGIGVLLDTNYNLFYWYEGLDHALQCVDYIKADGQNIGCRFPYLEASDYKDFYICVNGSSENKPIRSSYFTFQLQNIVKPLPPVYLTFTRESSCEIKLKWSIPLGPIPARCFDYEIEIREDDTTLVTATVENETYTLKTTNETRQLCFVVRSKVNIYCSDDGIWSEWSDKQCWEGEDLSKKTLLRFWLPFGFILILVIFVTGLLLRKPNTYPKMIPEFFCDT
Kind of test: inferred by the filing from LDH cytotoxicity of CAR-T cells on U87 (IL13Rα2+) versus 293FT (IL13Rα2-) cells. Here is the method: In order to measure the cytotoxicity of IL13Rα2-specific CAR-T cells prepared in Example 2 (#1, #2, #5, #6, #7, #8, #11, or #12), cytotoxicity assay was performed using an LDH (Promega) kit. Specifically, CAR-T cells (effector cells) were used 10 days after activation of the cells with an anti-CD3 Ab, and the CAR-T cells (having a CAR expression rate of 20% to 40%) were added to a 6-well plate at a ratio 1:2, in which effector:target was 1×10⁶ cells:2×10⁶ cells and reacted at 37° C. for 24 hours.
An analysis was performed to examine whether IL13Rα2-specific CAR-T cells prepared in the present invention can effectively kill the target cancer cells (U87 expressing IL13Rα2).

B1: CAR-containing polypeptide #12 (IL13Rα2-specific chimeric antigen receptor with human IL13.E11K.R64D.S67D.R107K binding domain, 4-1BB, IL-2Rβ part, mutant CD3ζ) (receptor)
chain: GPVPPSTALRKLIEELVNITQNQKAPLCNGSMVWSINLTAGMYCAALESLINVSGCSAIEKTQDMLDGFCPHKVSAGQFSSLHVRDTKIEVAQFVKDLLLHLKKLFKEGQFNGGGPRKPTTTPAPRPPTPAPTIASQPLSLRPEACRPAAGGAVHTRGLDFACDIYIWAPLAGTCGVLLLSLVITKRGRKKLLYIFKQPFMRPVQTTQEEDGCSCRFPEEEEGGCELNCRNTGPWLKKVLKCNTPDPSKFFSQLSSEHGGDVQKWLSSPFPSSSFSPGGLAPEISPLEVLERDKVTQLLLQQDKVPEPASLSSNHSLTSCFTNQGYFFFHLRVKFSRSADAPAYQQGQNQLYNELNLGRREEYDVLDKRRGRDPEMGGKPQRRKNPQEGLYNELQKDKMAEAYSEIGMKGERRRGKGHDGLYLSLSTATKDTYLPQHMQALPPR
notes: Expressed on human T cells; also called CAR-T #12; PG13/#12
For B1, the binding result is recorded as “binds”.

B2: CAR-containing polypeptide #6 (IL13Rα2-specific chimeric antigen receptor with human IL13.E11K.R64D.S67D.R107K binding domain, 4-1BB, IL-7Rα part, mutant CD3ζ) (receptor)
chain: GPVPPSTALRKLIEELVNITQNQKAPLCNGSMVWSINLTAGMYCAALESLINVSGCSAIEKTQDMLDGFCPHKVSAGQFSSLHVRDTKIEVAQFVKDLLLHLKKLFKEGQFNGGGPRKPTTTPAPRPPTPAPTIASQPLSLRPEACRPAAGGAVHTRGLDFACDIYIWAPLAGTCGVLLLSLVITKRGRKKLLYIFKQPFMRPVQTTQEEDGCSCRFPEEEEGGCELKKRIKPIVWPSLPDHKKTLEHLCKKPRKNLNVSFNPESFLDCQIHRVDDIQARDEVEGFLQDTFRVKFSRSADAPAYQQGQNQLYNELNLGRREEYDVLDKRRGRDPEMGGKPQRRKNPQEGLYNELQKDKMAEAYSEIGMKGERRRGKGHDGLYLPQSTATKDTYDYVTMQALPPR
notes: Expressed on human T cells; also called CAR-T #6; PG13/#6
With B2, the binding result is on record as “binds”.
